Results as given in publication PMC5270673, “Altered stoichiometry and nuclear delocalization of NonO and PSF promote cellular senescence” (Aging (Albany NY), 2016).
Each block holds one binder with its values, some of them ahead of it.

Columns and labels:
[1] = molecular target: the molecule itself; test: SEC; Superose 6 FPLC of nuclear and cytoplasmic extracts of BJ fibroblasts, untransfected or overexpressing NonO, day 8; 400 mM KCl, 20 mM HEPES pH 7.9, 1.0 mM MgCl2, 0.5 mM EGTA, 10% glycerol; fractions blotted with anti-NonO and anti-PSF; masses estimated from marker proteins
[2] = molecular target: T1, Splicing Factor Proline/Glutamine Rich, PSF/SFPQ (human (endogenous in BJ fibroblasts)), P23246; test: as above; conditions: remark: other sources report otherwise
T1 chain: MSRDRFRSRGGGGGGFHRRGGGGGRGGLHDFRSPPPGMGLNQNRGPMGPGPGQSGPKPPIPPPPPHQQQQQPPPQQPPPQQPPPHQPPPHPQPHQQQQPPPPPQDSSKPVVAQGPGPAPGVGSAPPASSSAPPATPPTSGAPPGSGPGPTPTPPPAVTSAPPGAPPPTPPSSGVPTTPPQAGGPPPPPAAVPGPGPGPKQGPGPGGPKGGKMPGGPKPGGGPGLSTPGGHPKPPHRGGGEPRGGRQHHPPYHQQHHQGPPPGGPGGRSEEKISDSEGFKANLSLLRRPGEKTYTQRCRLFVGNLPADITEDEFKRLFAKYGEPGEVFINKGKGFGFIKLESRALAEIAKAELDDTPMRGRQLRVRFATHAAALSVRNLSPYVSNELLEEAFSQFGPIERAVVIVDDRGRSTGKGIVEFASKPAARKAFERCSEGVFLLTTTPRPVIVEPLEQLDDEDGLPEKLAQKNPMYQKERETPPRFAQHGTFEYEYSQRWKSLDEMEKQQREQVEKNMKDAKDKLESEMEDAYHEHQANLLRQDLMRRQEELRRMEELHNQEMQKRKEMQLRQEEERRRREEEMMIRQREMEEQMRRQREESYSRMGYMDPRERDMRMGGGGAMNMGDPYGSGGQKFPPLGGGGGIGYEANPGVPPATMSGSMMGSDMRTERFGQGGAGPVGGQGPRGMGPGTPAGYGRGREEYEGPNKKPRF

B1: NonO overexpressed in BJ fibroblasts (natural protein, UniProt Q99K48 1-473, looked up)
chain: MQSNKAFNLEKQNHTPRKHHQHHHQQHHQQQQQQQQQQPPPPIPANGQQASSQNEGLTIDLKNFRKPGEKTFTQRSRLFVGNLPPDITEEEMRKLFEKYGKAGEVFIHKDKGFGFIRLETRTLAEIAKVELDNMPLRGKQLRVRFACHSASLTVRNLPQYVSNELLEEAFSVFGQVERAVVIVDDRGRPSGKGIVEFSGKPAARKALDRCSEGSFLLTTFPRPVTVEPMDQLDDEEGLPEKLVIKNQQFHKEREQPPRFAQPGSFEYEYAMRWKALIEMEKQQQDQVDRNIKEAREKLEMEMEAARHEHQVMLMRQDLMRRQEELRRMEELHNQEVQKRKQLELRQEEERRRREEEMRRQQEEMMRRQQEGFKGTFPDAREQEIRMGQMAMGGAMGINNRGAMPPAPVPPGTPAPPGPATMMPDGTLGLTPPTTERFGQAATMEGIGAIGGTPPAFNRPAPGAEFAPNKRRRY
notes: NonO cDNA expressed from a transfected plasmid; Its NonO fragments end at residue 473; The tag is therefore unknown; also called NonO OE; full-length NonO; source: BJ human diploid fibroblasts, stably transfected, nuclear or cytoplasmic extract
stoichiometry N [1]: 2

stoichiometry N [2]: 2
B2: Splicing Factor Proline/Glutamine Rich, PSF/SFPQ, P23246 1-707 (natural protein)
chain: T1 chain
